The target in this assay is human plasma-derived FIXa (Haematologic Technologies Inc) (human) (UniProt P00740). Briefly: cell-based or functional assay.

For two molecules, FXa generation rate, Peak stimulatory activity relative to 224F3 (fold relative to 224F3) and Stimulation index results are on record in patent US20250011468A1.

Chain of human plasma-derived FIXa (Haematologic Technologies Inc) (human) (P00740 47-191, chain 1 of 2): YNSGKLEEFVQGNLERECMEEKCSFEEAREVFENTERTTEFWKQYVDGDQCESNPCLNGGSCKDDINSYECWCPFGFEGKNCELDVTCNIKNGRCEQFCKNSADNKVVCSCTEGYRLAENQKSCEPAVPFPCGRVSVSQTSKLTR
Chain of human plasma-derived FIXa (Haematologic Technologies Inc) (human) (P00740 227-461, chain 2 of 2): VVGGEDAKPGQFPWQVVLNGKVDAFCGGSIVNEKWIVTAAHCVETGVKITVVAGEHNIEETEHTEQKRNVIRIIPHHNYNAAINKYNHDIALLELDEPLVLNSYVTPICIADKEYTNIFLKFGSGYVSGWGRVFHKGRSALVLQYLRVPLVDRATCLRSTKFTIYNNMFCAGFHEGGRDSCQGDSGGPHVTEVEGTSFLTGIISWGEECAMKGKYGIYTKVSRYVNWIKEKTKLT

B1: 224F3 (anti-FIXa reference antibody, Scheiflinger et al.) (antibody, from another filing, human IgG1, V domains shown)
VH: QVQMQQSGAELVKPGASVKLSCKASGYTFTSQDINWVRQRPEQGLEWIGWIFPGDGSTKYNEKLKGKATLTTDKSSSTAFMQLSRLTSEDSAVYFCARSAYYRYDGSYYYAMDYWGQGTSVTVSS
VL: QIVLTQSPAIMSASLGEEITLTCSASSSVSYMLWYQQKSGTSPKLLIYTTSNLASGVPSRFSGTGSGTFYSLTISSVEAEDAADYYCHQWSSYPRTFGGGTKLEIKR
B1: the FXa generation rate at 3.2 nM mAb is 20 pM/min, the FXa generation rate at 6.3 nM mAb came to 17.4 pM/min, the FXa generation rate at 12.5 nM mAb amounted to 14.7 pM/min and the FXa generation rate at 25 nM mAb was found to be 9 pM/min. The molecule further yielded an FXa generation rate at 50 nM mAb of 9 pM/min, an FXa generation rate at 100 nM mAb of 7.2 pM/min, an FXa generation rate at 200 nM mAb of 5.5 pM/min and a Peak stimulatory activity relative to 224F3 (fold relative to 224F3) of 1.

B2: mAb1-1582 (monovalent one-armed version of the anti-FIXa antibody 224F3) (antibody, from another filing, V domains shown)
VH: QVQMQQSGAELVKPGASVKLSCKASGYTFTSQDINWVRQRPEQGLEWIGWIFPGDGSTKYNEKLKGKATLTTDKSSSTAFMQLSRLTSEDSAVYFCARSAYYRYDGSYYYAMDYWGQGTSVTVSS
VL: QIVLTQSPAIMSASLGEEITLTCSASSSVSYMLWYQQKSGTSPKLLIYTTSNLASGVPSRFSGTGSGTFYSLTISSVEAEDAADYYCHQWSSYPRTFGGGTKLEIKR
For B2, the Stimulation index at 3260 nM OA antibody is under 10 fold.
